Source: patent US20210214414A1 (Pfizer, published 2021)

Assays:
[1] = biological target: T1, Human/cynomolgus monkey SLIT2-D2 (human and cynomolgus monkey (100% …, UniProt O94813 271-479)); assay: SPR, ROBO2-Fc 2.2 captured by anti-human Fc on a C1 chip, SLIT2-D2 as analyte, 1:1 model
T1 construct: domain: D2; the crystallisation construct (271-479, His6) is kept as a separate molecule; also called Human and Cynomolgus Monkey SLIT2-D2; SLIT2 D2 domain
T1 sequence (looked up): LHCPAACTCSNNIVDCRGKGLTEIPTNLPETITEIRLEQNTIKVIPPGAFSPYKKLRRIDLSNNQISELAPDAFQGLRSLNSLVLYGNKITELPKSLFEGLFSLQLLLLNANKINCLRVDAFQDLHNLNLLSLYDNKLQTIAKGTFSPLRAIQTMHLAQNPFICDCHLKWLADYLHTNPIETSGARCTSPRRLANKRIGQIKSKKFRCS
Method: HBS-EP was used as a diluent. […] An 8 point 2-fold dilution series was performed on the SLIT2 ligands, ranging from 2 nM to 15.6 pM using HBS-EPB as the diluent. […] Association of the indicated SLIT2 ligand was followed for 120 s and dissociation monitored for 180 s. The apparent binding affinity was determined using a simple 1:1 interaction model of the kinetic rate constants.

Human SLIT2-N = biological target: T2, Human SLIT2-N (human, UniProt O94813 31-1121, limits assumed); assay: flow cytometry, AF647-labelled ROBO2-Fc 2.2 on HEK293 cells overexpressing human SLIT2-N
T2 construct: domain: SLIT2-N (N terminal fragment); Soluble analyte in SPR, d2-labelled in HTRF, overexpressed on HEK293 cells in flow cytometry; also called human SLIT2-N (N terminal fragment)
T2 sequence (looked up): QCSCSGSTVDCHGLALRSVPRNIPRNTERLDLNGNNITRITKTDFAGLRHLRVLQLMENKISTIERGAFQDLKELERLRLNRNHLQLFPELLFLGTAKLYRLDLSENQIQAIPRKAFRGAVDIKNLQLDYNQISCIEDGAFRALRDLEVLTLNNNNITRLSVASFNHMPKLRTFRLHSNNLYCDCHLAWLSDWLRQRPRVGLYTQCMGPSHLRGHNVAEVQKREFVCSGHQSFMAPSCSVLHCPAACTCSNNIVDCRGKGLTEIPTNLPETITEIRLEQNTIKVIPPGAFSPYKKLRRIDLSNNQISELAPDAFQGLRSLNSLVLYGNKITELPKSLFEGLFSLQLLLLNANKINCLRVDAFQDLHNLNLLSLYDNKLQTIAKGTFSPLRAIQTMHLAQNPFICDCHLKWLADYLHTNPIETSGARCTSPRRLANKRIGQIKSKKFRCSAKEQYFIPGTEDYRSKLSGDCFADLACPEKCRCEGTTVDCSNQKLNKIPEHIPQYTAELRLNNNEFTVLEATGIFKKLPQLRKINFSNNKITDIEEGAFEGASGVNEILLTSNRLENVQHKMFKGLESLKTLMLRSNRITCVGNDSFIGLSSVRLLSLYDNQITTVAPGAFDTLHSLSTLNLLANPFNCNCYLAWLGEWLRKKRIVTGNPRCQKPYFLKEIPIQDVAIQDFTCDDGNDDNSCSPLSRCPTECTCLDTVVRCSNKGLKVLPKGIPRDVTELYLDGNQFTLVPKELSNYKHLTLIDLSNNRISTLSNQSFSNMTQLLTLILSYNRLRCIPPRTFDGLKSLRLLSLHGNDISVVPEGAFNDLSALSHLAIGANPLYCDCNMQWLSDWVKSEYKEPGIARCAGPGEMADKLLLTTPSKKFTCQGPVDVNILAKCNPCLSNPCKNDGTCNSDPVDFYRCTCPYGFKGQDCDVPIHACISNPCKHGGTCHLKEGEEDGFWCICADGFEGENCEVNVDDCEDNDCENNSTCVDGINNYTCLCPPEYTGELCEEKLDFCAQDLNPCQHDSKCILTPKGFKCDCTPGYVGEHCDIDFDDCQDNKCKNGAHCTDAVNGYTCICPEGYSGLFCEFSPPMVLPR
Method: After incubation, 150 μL of FACS buffer was added per well to wash the cells. After washing, cells were resuspended in buffer for data acquisition on a Fortessa Flow Cytometer.

B1: ROBO2-Fc 2.2 (Fc fusion)
chain: SRLRQEDFPPRIVEHPSDVIVSKGEPTTLNCKAEGRPTPTIEWYKDGERVETDKDDPRSHRMLLPSGSLFFLRIVHGRRSKPDEGSYVCVARNYLGEAVSRNASLEVALLRDDFRQNPTDVVVAAGEPAILECQPPRGHPEPTIYWKKDKVRIDDKEERISIRGGKLMISNTRKSDAGMYTCVGTNMVGERDSDPAELTVFERGGSGGSEPKSSDKTHTCPPCPAPEAAGAPSVFLFPPKPKDTLMISRTPEVTCVVVDVSHEDPEVKFNWYVDGVEVHNAKTKPREEQYNSTYRVVSVLTVLHQDWLNGKEYKCKVSNKALPAPIEKTISKAKGQPREPQVYTLPPSREEMTKNQVSLTCLVKGFYPSDIAVEWESNGQPENNYKTTPPVLDSDGSFFLYSKLTVDKSRWQQGNVFSCSVMHEALHNHYTQKSLSLSPG
notes: Labelled with Alexa Fluor 647 in the flow cytometry assay; also called ROBO-Fc 2.2; ROBO2-Fc 2.2-AF647
[1]
  Kd: 0.293 nM
Human SLIT2-N
  EC50: 8.6 nM
